The results in this text go back to patent US20140271478A1 (University of California, published 2014).

For assay [1], the target named is T1, human integrin β8 swap construct RKMALF (SEQ ID NO:134) (human, UniProt P26012 43-769).
T1 sequence: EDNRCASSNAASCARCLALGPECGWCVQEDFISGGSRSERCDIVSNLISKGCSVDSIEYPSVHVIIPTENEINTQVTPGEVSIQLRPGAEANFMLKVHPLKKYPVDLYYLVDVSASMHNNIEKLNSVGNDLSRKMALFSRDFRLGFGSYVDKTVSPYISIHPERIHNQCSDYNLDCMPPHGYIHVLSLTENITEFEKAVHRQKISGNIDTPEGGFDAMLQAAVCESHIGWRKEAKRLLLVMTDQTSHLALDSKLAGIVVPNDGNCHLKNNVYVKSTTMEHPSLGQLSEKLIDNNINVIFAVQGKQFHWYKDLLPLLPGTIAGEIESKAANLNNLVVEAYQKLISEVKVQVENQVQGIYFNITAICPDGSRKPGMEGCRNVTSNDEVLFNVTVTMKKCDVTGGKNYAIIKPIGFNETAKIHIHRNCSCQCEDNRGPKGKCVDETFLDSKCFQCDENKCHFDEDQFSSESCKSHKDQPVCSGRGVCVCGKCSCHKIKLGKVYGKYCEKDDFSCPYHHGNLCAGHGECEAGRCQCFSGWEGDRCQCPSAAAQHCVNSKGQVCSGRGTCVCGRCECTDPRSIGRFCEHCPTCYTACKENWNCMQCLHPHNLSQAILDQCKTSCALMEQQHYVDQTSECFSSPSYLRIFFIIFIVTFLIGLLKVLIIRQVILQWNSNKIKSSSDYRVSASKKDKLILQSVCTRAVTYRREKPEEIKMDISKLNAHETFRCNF
Briefly: cell staining of β8 amino acid swap constructs (175-180).

A further assay addresses T2, mouse integrin β8 (mouse, UniProt Q0VBD0 22-767).
T2 construct: whole, on cells; also called mouse β8; itgb8
T2 sequence (looked up): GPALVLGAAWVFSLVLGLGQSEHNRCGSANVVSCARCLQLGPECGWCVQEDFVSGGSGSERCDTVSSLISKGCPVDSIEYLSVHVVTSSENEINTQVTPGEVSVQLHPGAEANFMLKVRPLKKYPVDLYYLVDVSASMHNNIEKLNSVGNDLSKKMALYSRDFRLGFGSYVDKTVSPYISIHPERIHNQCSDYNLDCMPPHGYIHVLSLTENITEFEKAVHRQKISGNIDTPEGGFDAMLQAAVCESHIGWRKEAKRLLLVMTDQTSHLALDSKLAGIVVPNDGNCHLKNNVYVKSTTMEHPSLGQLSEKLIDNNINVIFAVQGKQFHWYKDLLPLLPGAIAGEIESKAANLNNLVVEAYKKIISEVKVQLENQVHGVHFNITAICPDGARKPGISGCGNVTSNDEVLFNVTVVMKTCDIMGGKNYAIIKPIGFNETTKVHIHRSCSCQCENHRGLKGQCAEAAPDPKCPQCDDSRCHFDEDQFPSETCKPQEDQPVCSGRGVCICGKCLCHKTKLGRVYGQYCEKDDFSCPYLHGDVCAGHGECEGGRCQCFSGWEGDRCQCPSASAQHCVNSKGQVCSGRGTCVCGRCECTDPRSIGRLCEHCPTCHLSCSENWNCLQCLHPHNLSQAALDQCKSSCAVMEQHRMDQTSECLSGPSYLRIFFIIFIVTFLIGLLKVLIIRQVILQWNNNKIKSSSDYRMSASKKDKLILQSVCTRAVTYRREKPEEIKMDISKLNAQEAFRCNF
Briefly: cell surface staining, flow cytometry. (In general: A flow cytometer gives signals particle by particle.)

B1: 37E1B5 antibody (antibody, V domains shown)
VH: EVQLVESGGGLVQPGGSLNLSCAVSGFVFSRYWMSWVRQAPGKGLEWIGEINPDSSTINYTSSLKDKFIISRDNAKNTLYLQMNKVRSEDTALYYCACLITTEDYWGQGTSVTVSS
VL: QIVLTQSPSSMYASLGERVTIPCKASQDINSYLSWFQQKPGKSPKTLIYYANRLVDGVPSRFSGSGSGQDYSLTISSLEYEDMGIYYCLQYDEFPYTFGGGTKLEIK
Turning to B1, the “% positive” value in assay [1] was 131%.

B2: 14E5 antibody (antibody, V domains shown)
VH: EVQLQQSGAELMKPGASVKISCKATGYTFSTYWIEWIKQRPGHGLEWIGHILPGSVITNYNEKFKGKAAITADTSSNTSYMQLSSLTSEDSAVYYCARWGWDSYWGQGTLVTVSS
VL: DIEMTQSPSSLSASLGDRVTISCSTSQDISSSLNWYQQKPDGTVTLLIYYTSNLHSGVPSRFSGSGSGTDYSLTISNLEPEDIATYYCQQYSKLPYTFGGGTKLEIKR
notes: Mouse hybridoma antibody; also called hybridoma clone 14E5
In the case of B2, the binding result with mouse integrin β8 was “no binding”. Moreover, in assay [1], the “% positive” value is 150%.

B3: 11E8 antibody (antibody, V domains shown)
VH: EVQLQQSGPELMKTGASVKISCKATGYTFSSYWIEWVKQRPGHGLEWIGDILPGSGTTNYNEKFKGRATVTADRSSNTAYMQLSSLTYGDSAVYYCATWGWDTYWDQGTSVTVSS
VL: DIVMTQSPSSLSASLGDRVTISCSASQGISNYLNWYQQKPDGTVKLLIYYTSSLHSGVPSRFSGSGSGTDYSLTISNLEPEDIATYYCQQYSNLPYTFGGGTKLEIKR
notes: Mouse hybridoma antibody
As to B3, the binding result with mouse integrin β8 was “no binding”. Besides, in assay [1], the “% positive” value was 125%.
